According to paper PMC4036362, “Normal Activation of Discoidin Domain Receptor 1 Mutants with Disulfide Cross-links, Insertions, or Deletions in the Extracellular Juxtamembrane Region” (The Journal of Biological Chemistry, 2014):

B1: DDR1 V408C (in the C287S background) (receptor, human, UniProt Q08345 19-913, looked up)
chain: DADMKGHFDPAKCRYALGMQDRTIPDSDISASSSWSDSTAARHSRLESSDGDGAWCPAGSVFPKEEEYLQVDLQRLHLVALVGTQGRHAGGLGKEFSRSYRLRYSRDGRRWMGWKDRWGQEVISGNEDPEGVVLKDLGPPMVARLVRFYPRADRVMSVCLRVELYGCLWRDGLLSYTAPVGQTMYLSEAVYLNDSTYDGHTVGGLQYGGLGQLADGVVGLDDFRKSQELRVWPGYDYVGWSNHSFSSGYVEMEFEFDRLRAFQAMQVHSNNMHTLGARLPGGVECRFRRGPAMAWEGEPMRHNLGGNLGDPRARAVSVPLGGRVARFLQCRFLFAGPWLLFSEISFISDVVNNSSPALGGTFPPAPWWPPGPPPTNFSSLELEPRGQQPCAKAEGSPTAILIGCLVAIILLLLLIIALMLWRLHWRRLLSKAERRVLEEELTVHLSVPGDTILINNRPGPREPPPYQEPRPRGNPPHSAPCVPNGSALLLSNPAYRLLLATYARPPRGPGPPTPAWAKPTNTQAYSGDYMEPEKPGAPLLPPPPQNSVPHYAEADIVTLQGVTGGNTYAVPALPPGAVGDGPPRVDFPRSRLRFKEKLGEGQFGEVHLCEVDSPQDLVSLDFPLNVRKGHPLLVAVKILRPDATKNARNDFLKEVKIMSRLKDPNIIRLLGVCVQDDPLCMITDYMENGDLNQFLSAHQLEDKAAEGAPGDGQAAQGPTISYPMLLHVAAQIASGMRYLATLNFVHRDLATRNCLVGENFTIKIADFGMSRNLYAGDYYRVQGRAVLPIRWMAWECILMGKFTTASDVWAFGVTLWEVLMLCRAQPFGQLTDEQVIENAGEFFRDQGRQVYLSRPPACPQGLYELMLRCWSRESEQRPPFSQLHRFLAEDALNTV
notes: discoidin domain receptor 1, isoform DDR1b, human; full-length cDNA in pRK5; source: HEK293, transiently transfected, in lysate
B2: DDR1 residue 411 to cysteine (in the C287S background) (receptor, human, UniProt Q08345 19-913, looked up)
chain: DADMKGHFDPAKCRYALGMQDRTIPDSDISASSSWSDSTAARHSRLESSDGDGAWCPAGSVFPKEEEYLQVDLQRLHLVALVGTQGRHAGGLGKEFSRSYRLRYSRDGRRWMGWKDRWGQEVISGNEDPEGVVLKDLGPPMVARLVRFYPRADRVMSVCLRVELYGCLWRDGLLSYTAPVGQTMYLSEAVYLNDSTYDGHTVGGLQYGGLGQLADGVVGLDDFRKSQELRVWPGYDYVGWSNHSFSSGYVEMEFEFDRLRAFQAMQVHSNNMHTLGARLPGGVECRFRRGPAMAWEGEPMRHNLGGNLGDPRARAVSVPLGGRVARFLQCRFLFAGPWLLFSEISFISDVVNNSSPALGGTFPPAPWWPPGPPPTNFSSLELEPRGQQPVAKCEGSPTAILIGCLVAIILLLLLIIALMLWRLHWRRLLSKAERRVLEEELTVHLSVPGDTILINNRPGPREPPPYQEPRPRGNPPHSAPCVPNGSALLLSNPAYRLLLATYARPPRGPGPPTPAWAKPTNTQAYSGDYMEPEKPGAPLLPPPPQNSVPHYAEADIVTLQGVTGGNTYAVPALPPGAVGDGPPRVDFPRSRLRFKEKLGEGQFGEVHLCEVDSPQDLVSLDFPLNVRKGHPLLVAVKILRPDATKNARNDFLKEVKIMSRLKDPNIIRLLGVCVQDDPLCMITDYMENGDLNQFLSAHQLEDKAAEGAPGDGQAAQGPTISYPMLLHVAAQIASGMRYLATLNFVHRDLATRNCLVGENFTIKIADFGMSRNLYAGDYYRVQGRAVLPIRWMAWECILMGKFTTASDVWAFGVTLWEVLMLCRAQPFGQLTDEQVIENAGEFFRDQGRQVYLSRPPACPQGLYELMLRCWSRESEQRPPFSQLHRFLAEDALNTV
notes: discoidin domain receptor 1, isoform DDR1b, human; full-length cDNA in pRK5; The text gives only the range V408C to A417C (10 single mutants); also called one of the 10 mutants V408C to A417C; source: HEK293, transiently transfected, in lysate
B3: DDR1 E412C (in the C287S background) (receptor, human, UniProt Q08345 19-913, looked up)
chain: DADMKGHFDPAKCRYALGMQDRTIPDSDISASSSWSDSTAARHSRLESSDGDGAWCPAGSVFPKEEEYLQVDLQRLHLVALVGTQGRHAGGLGKEFSRSYRLRYSRDGRRWMGWKDRWGQEVISGNEDPEGVVLKDLGPPMVARLVRFYPRADRVMSVCLRVELYGCLWRDGLLSYTAPVGQTMYLSEAVYLNDSTYDGHTVGGLQYGGLGQLADGVVGLDDFRKSQELRVWPGYDYVGWSNHSFSSGYVEMEFEFDRLRAFQAMQVHSNNMHTLGARLPGGVECRFRRGPAMAWEGEPMRHNLGGNLGDPRARAVSVPLGGRVARFLQCRFLFAGPWLLFSEISFISDVVNNSSPALGGTFPPAPWWPPGPPPTNFSSLELEPRGQQPVAKACGSPTAILIGCLVAIILLLLLIIALMLWRLHWRRLLSKAERRVLEEELTVHLSVPGDTILINNRPGPREPPPYQEPRPRGNPPHSAPCVPNGSALLLSNPAYRLLLATYARPPRGPGPPTPAWAKPTNTQAYSGDYMEPEKPGAPLLPPPPQNSVPHYAEADIVTLQGVTGGNTYAVPALPPGAVGDGPPRVDFPRSRLRFKEKLGEGQFGEVHLCEVDSPQDLVSLDFPLNVRKGHPLLVAVKILRPDATKNARNDFLKEVKIMSRLKDPNIIRLLGVCVQDDPLCMITDYMENGDLNQFLSAHQLEDKAAEGAPGDGQAAQGPTISYPMLLHVAAQIASGMRYLATLNFVHRDLATRNCLVGENFTIKIADFGMSRNLYAGDYYRVQGRAVLPIRWMAWECILMGKFTTASDVWAFGVTLWEVLMLCRAQPFGQLTDEQVIENAGEFFRDQGRQVYLSRPPACPQGLYELMLRCWSRESEQRPPFSQLHRFLAEDALNTV
notes: as for B1
B4: DDR1 residue 409 to cysteine (in the C287S background) (receptor, human, UniProt Q08345 19-913, looked up)
chain: DADMKGHFDPAKCRYALGMQDRTIPDSDISASSSWSDSTAARHSRLESSDGDGAWCPAGSVFPKEEEYLQVDLQRLHLVALVGTQGRHAGGLGKEFSRSYRLRYSRDGRRWMGWKDRWGQEVISGNEDPEGVVLKDLGPPMVARLVRFYPRADRVMSVCLRVELYGCLWRDGLLSYTAPVGQTMYLSEAVYLNDSTYDGHTVGGLQYGGLGQLADGVVGLDDFRKSQELRVWPGYDYVGWSNHSFSSGYVEMEFEFDRLRAFQAMQVHSNNMHTLGARLPGGVECRFRRGPAMAWEGEPMRHNLGGNLGDPRARAVSVPLGGRVARFLQCRFLFAGPWLLFSEISFISDVVNNSSPALGGTFPPAPWWPPGPPPTNFSSLELEPRGQQPVCKAEGSPTAILIGCLVAIILLLLLIIALMLWRLHWRRLLSKAERRVLEEELTVHLSVPGDTILINNRPGPREPPPYQEPRPRGNPPHSAPCVPNGSALLLSNPAYRLLLATYARPPRGPGPPTPAWAKPTNTQAYSGDYMEPEKPGAPLLPPPPQNSVPHYAEADIVTLQGVTGGNTYAVPALPPGAVGDGPPRVDFPRSRLRFKEKLGEGQFGEVHLCEVDSPQDLVSLDFPLNVRKGHPLLVAVKILRPDATKNARNDFLKEVKIMSRLKDPNIIRLLGVCVQDDPLCMITDYMENGDLNQFLSAHQLEDKAAEGAPGDGQAAQGPTISYPMLLHVAAQIASGMRYLATLNFVHRDLATRNCLVGENFTIKIADFGMSRNLYAGDYYRVQGRAVLPIRWMAWECILMGKFTTASDVWAFGVTLWEVLMLCRAQPFGQLTDEQVIENAGEFFRDQGRQVYLSRPPACPQGLYELMLRCWSRESEQRPPFSQLHRFLAEDALNTV
notes: as for B2
B5: DDR1 residue 410 to cysteine (in the C287S background) (receptor, human, UniProt Q08345 19-913, looked up)
chain: DADMKGHFDPAKCRYALGMQDRTIPDSDISASSSWSDSTAARHSRLESSDGDGAWCPAGSVFPKEEEYLQVDLQRLHLVALVGTQGRHAGGLGKEFSRSYRLRYSRDGRRWMGWKDRWGQEVISGNEDPEGVVLKDLGPPMVARLVRFYPRADRVMSVCLRVELYGCLWRDGLLSYTAPVGQTMYLSEAVYLNDSTYDGHTVGGLQYGGLGQLADGVVGLDDFRKSQELRVWPGYDYVGWSNHSFSSGYVEMEFEFDRLRAFQAMQVHSNNMHTLGARLPGGVECRFRRGPAMAWEGEPMRHNLGGNLGDPRARAVSVPLGGRVARFLQCRFLFAGPWLLFSEISFISDVVNNSSPALGGTFPPAPWWPPGPPPTNFSSLELEPRGQQPVACAEGSPTAILIGCLVAIILLLLLIIALMLWRLHWRRLLSKAERRVLEEELTVHLSVPGDTILINNRPGPREPPPYQEPRPRGNPPHSAPCVPNGSALLLSNPAYRLLLATYARPPRGPGPPTPAWAKPTNTQAYSGDYMEPEKPGAPLLPPPPQNSVPHYAEADIVTLQGVTGGNTYAVPALPPGAVGDGPPRVDFPRSRLRFKEKLGEGQFGEVHLCEVDSPQDLVSLDFPLNVRKGHPLLVAVKILRPDATKNARNDFLKEVKIMSRLKDPNIIRLLGVCVQDDPLCMITDYMENGDLNQFLSAHQLEDKAAEGAPGDGQAAQGPTISYPMLLHVAAQIASGMRYLATLNFVHRDLATRNCLVGENFTIKIADFGMSRNLYAGDYYRVQGRAVLPIRWMAWECILMGKFTTASDVWAFGVTLWEVLMLCRAQPFGQLTDEQVIENAGEFFRDQGRQVYLSRPPACPQGLYELMLRCWSRESEQRPPFSQLHRFLAEDALNTV
notes: as for B2
B6: DDR1 residue 413 to cysteine (in the C287S background) (receptor, human, UniProt Q08345 19-913, looked up)
chain: DADMKGHFDPAKCRYALGMQDRTIPDSDISASSSWSDSTAARHSRLESSDGDGAWCPAGSVFPKEEEYLQVDLQRLHLVALVGTQGRHAGGLGKEFSRSYRLRYSRDGRRWMGWKDRWGQEVISGNEDPEGVVLKDLGPPMVARLVRFYPRADRVMSVCLRVELYGCLWRDGLLSYTAPVGQTMYLSEAVYLNDSTYDGHTVGGLQYGGLGQLADGVVGLDDFRKSQELRVWPGYDYVGWSNHSFSSGYVEMEFEFDRLRAFQAMQVHSNNMHTLGARLPGGVECRFRRGPAMAWEGEPMRHNLGGNLGDPRARAVSVPLGGRVARFLQCRFLFAGPWLLFSEISFISDVVNNSSPALGGTFPPAPWWPPGPPPTNFSSLELEPRGQQPVAKAECSPTAILIGCLVAIILLLLLIIALMLWRLHWRRLLSKAERRVLEEELTVHLSVPGDTILINNRPGPREPPPYQEPRPRGNPPHSAPCVPNGSALLLSNPAYRLLLATYARPPRGPGPPTPAWAKPTNTQAYSGDYMEPEKPGAPLLPPPPQNSVPHYAEADIVTLQGVTGGNTYAVPALPPGAVGDGPPRVDFPRSRLRFKEKLGEGQFGEVHLCEVDSPQDLVSLDFPLNVRKGHPLLVAVKILRPDATKNARNDFLKEVKIMSRLKDPNIIRLLGVCVQDDPLCMITDYMENGDLNQFLSAHQLEDKAAEGAPGDGQAAQGPTISYPMLLHVAAQIASGMRYLATLNFVHRDLATRNCLVGENFTIKIADFGMSRNLYAGDYYRVQGRAVLPIRWMAWECILMGKFTTASDVWAFGVTLWEVLMLCRAQPFGQLTDEQVIENAGEFFRDQGRQVYLSRPPACPQGLYELMLRCWSRESEQRPPFSQLHRFLAEDALNTV
notes: as for B2

Target: the molecule itself
Test: cross-linking; disulfide cross-linking of introduced cysteines in transiently transfected HEK293 cells, untreated or with 10 ug/ml collagen I for 90 min at 37 °C; lysis in 1% Nonidet P-40 buffer with NEM; nonreducing SDS-PAGE on 5% gels, Western blot with anti-DDR1; efficiency as percent dimeric of total DDR1

Protein	dimerization efficiency (percent dimeric of total DDR1) [%]
B1	> 70
B2	> 70
B3	> 70
B4	> 70
B5	> 70
B6	> 70
